Experimental data: the supplement of paper PMC9876800

Tested on: peptide library, one residue held at a place counted from the S/T acceptor
Test: relative phosphorylation of the sub-library (ratio to the mean residue at this position); human; higher = residue favoured
Summary of the method: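 Relative sub-library phosphorylation is the ratio of each sub-library's signal to the mean residue at that position. The signal came from phosphorimaging of spots on streptavidin membranes, quantified by densitometry, after purified recombinant kinases reacted with biotinylated degenerate peptide sub-libraries in 384-well plates. Reactions held 50 μM peptide and 50 μM ATP spiked with γ-32P-ATP for 90 min under kinase-specific conditions.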

Sequence of CDK10, construct: Full length (Q15131 whole entry, looked up): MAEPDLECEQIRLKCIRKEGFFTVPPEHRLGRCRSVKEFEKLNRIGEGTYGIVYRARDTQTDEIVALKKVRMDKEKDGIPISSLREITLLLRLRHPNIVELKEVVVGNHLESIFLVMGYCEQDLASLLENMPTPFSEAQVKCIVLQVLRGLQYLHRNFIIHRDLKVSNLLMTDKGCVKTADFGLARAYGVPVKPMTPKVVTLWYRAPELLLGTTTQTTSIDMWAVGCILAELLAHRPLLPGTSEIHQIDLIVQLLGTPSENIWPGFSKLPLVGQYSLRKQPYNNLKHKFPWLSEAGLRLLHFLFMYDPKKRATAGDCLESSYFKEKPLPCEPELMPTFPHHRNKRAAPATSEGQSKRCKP
Sequence of TTBK1, construct: Full length (Q5TCY1 whole entry, looked up): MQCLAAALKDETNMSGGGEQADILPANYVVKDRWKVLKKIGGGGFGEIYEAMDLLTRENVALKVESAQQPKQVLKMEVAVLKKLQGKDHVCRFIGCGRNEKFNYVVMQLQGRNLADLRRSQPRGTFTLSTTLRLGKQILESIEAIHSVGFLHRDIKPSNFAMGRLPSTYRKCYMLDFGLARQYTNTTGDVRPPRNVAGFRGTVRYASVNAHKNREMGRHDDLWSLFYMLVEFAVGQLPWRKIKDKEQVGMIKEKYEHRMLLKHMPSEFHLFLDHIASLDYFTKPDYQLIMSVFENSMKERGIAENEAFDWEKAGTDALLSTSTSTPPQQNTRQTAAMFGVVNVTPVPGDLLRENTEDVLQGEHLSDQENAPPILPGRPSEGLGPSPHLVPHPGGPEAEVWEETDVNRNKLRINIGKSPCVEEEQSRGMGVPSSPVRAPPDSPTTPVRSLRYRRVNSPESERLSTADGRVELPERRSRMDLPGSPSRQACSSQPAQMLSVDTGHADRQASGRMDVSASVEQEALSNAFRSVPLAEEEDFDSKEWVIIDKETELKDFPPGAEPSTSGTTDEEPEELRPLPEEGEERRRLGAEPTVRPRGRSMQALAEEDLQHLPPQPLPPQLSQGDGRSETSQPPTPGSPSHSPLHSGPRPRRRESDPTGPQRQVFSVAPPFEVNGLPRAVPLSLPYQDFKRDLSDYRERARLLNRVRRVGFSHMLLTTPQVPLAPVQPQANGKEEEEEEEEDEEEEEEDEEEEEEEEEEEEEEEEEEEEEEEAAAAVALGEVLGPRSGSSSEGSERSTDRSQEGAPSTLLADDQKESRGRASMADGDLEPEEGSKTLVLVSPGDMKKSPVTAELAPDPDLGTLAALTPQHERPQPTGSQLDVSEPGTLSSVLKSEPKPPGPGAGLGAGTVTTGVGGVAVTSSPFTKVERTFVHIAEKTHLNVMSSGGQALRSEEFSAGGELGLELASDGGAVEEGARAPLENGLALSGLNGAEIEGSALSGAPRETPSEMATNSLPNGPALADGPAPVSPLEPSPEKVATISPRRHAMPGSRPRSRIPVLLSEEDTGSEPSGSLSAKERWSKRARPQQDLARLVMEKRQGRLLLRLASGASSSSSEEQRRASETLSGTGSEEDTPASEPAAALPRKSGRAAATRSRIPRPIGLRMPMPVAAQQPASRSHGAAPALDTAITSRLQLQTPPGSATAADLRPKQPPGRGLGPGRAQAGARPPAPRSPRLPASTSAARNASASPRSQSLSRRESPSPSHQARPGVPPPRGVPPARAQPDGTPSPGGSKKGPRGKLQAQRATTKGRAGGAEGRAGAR
Sequence of CHEK2, construct: Full length (O96017 whole entry, looked up): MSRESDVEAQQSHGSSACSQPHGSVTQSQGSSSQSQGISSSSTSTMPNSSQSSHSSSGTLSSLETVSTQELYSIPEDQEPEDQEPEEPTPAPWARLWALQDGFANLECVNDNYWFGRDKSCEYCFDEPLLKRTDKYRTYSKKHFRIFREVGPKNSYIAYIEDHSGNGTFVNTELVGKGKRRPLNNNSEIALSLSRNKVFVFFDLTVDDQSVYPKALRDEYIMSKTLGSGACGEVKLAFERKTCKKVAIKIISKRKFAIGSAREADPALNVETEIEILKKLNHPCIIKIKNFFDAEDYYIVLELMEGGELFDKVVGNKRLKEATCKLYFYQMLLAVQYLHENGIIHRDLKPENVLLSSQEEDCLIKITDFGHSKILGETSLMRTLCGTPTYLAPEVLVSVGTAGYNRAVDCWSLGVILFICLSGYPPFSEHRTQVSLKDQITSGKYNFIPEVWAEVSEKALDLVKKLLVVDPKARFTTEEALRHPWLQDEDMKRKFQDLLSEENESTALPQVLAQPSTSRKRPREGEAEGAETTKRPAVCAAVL
Sequence of ACVR1B, construct: aa150-end (P36896 150-505, looked up): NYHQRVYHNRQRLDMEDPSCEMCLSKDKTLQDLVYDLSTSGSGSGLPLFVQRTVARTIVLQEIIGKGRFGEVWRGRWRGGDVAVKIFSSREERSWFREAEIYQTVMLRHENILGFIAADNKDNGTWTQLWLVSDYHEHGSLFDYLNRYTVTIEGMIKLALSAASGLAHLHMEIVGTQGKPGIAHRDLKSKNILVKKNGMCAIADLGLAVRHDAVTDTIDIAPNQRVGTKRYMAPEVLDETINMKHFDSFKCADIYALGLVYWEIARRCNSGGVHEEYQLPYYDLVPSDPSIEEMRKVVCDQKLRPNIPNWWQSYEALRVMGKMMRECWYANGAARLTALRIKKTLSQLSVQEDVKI

CHEK2, construct: Full length (from UniProt O96017)
relative phosphorylation
Conditions	at +1	at +2	at +3	at +4	at -1	at -2	at -3	at -4	at -5
A fixed	0.589	0.731	0.81	0.837	0.816	1.26	0.562	0.987	0.172
D fixed	0.317	0.397	0.484	0.53	0.702	0.276	0.1	0.367	0.236
E fixed	0.402	0.382	0.407	0.541	0.383	0.785	0.136	0.839	0.307
F fixed	1.88	1.06	1.33	0.985	0.809	0.672	0.197	0.895	1.42
G fixed	0.741	0.784	0.818	0.987	0.707	0.679	0.275	0.743	0.514
H fixed	0.892	1.43	1.05	1.27	1.21	1.01	0.614	0.953	0.619
I fixed	1.51	0.934	0.975	0.941	0.81	0.598	0.199	0.924	1.7
K fixed	1.02	1.12	1.16	1.33	1.71	1.53	2.26	1.63	0.694
L fixed	1.41	0.851	1.02	0.859	1.28	0.843	0.217	1.02	2.42
M fixed	1.5	0.978	1.04	0.929	1.15	1.37	0.256	1.17	1.55
N fixed	0.93	0.941	0.889	1.14	1.61	0.832	0.208	0.651	0.491
P fixed	0.389	0.946	0.956	1.04	1.06	0.219	0.177	0.548	1.03
Q fixed	0.877	0.801	0.857	0.945	0.84	1.71	0.543	1.09	0.815
R fixed	1.34	1.97	1.53	1.65	1.63	2.92	10.5	2.23	1.52
V fixed	1.04	0.875	0.848	0.731	0.777	0.621	0.205	1.1	1.39
W fixed	1.07	1.24	1.44	1.17	0.587	0.639	0.284	0.807	0.914
Y fixed	1.09	1.55	1.39	1.12	0.924	1.04	0.265	1.05	1.19
pThr fixed	0.96	1.06	0.653	0.586	0.354	0.477	0.214	0.662	0.472
pTyr fixed	0.529	0.489	0.659	0.575	0.603	0.4	0.178	0.574	0.725

CDK10, construct: Full length (from UniProt Q15131)
relative phosphorylation
Conditions	at +1	at +2	at +3	at +4	at -1	at -2	at -3	at -4	at -5
A fixed	0.232	0.641	0.676	0.671	0.931	0.896	0.838	0.851	0.845
D fixed	0.124	0.342	0.305	0.505	0.378	0.311	0.302	0.355	0.357
E fixed	0.115	0.297	0.26	0.337	0.231	0.244	0.276	0.361	0.293
F fixed	0.303	0.554	0.721	0.643	0.669	0.667	0.635	0.782	1.02
G fixed	1.3	0.952	0.795	1.09	1.56	0.715	1.01	0.955	1.05
H fixed	0.235	1.22	1.23	1.37	0.915	0.821	1.11	1.13	1.08
I fixed	0.282	0.598	0.67	0.655	0.284	0.724	0.722	0.652	0.713
K fixed	0.397	3.05	1.66	2.1	2.08	1.64	1.66	2.23	2.24
L fixed	0.296	0.683	0.66	0.661	0.787	1.15	0.78	0.658	0.78
M fixed	0.32	0.572	0.618	0.638	1.01	1.06	0.776	0.831	0.757
N fixed	0.247	0.864	0.852	0.868	0.786	0.753	0.749	0.841	0.741
P fixed	11.8	0.782	1.13	1.02	1.58	2.09	0.88	1.08	0.97
Q fixed	0.294	0.967	0.874	1.24	0.859	0.958	0.874	0.973	0.911
R fixed	0.405	3.58	4.52	2.61	2.65	2.65	3.91	2.3	2.25
V fixed	0.245	0.515	0.716	0.691	0.408	0.731	0.625	0.628	0.605
W fixed	0.241	0.541	0.621	0.967	1.11	0.872	0.997	1.46	1.26
Y fixed	0.209	0.843	0.686	0.938	0.77	0.727	0.86	0.918	1.12
pThr fixed	0.506	0.924	0.88	0.879	0.602	0.737	0.853	0.941	0.789
pTyr fixed	0.461	0.367	0.508	0.431	0.375	0.388	0.538	0.559	0.537

TTBK1, construct: Full length (from UniProt Q5TCY1)
relative phosphorylation
Conditions	at +1	at +2	at +3	at +4	at -1	at -2	at -3	at -4	at -5
A fixed	0.474	1.63	0.964	0.817	0.663	0.79	0.94	0.821	0.856
D fixed	0.168	0.192	0.85	0.83	0.452	1.46	1.23	1.03	0.844
E fixed	0.626	0.168	1.35	0.735	0.391	1.14	0.832	0.75	0.582
F fixed	2.09	1.42	1.49	1.32	1.99	1.06	1.43	1.33	1.78
G fixed	0.183	0.441	0.998	0.874	0.355	0.662	0.918	0.815	0.877
H fixed	0.657	1.1	0.867	0.931	0.834	0.749	0.903	0.951	0.747
I fixed	2.66	1.23	1.54	0.714	1.67	1.02	1.56	1.24	1.19
K fixed	0.517	1.04	0.514	1.1	1.28	0.64	0.66	0.957	1.08
L fixed	1.76	0.965	1.15	0.965	1.7	2.09	1.24	1.07	0.95
M fixed	1.5	1.31	1.29	0.855	1.08	1.23	1.04	0.933	0.79
N fixed	0.221	0.394	0.472	0.8	0.562	0.773	0.666	0.683	0.626
P fixed	0.0712	0.231	0.421	1.23	0.589	1.04	0.649	0.687	0.7
Q fixed	0.749	0.493	0.595	0.928	0.675	0.849	0.801	0.674	0.773
R fixed	0.789	1.42	0.641	1.41	1.23	0.934	0.888	1.06	1.22
V fixed	1.84	1.18	1.35	0.728	1.4	1.04	1.02	1.22	1.17
W fixed	1.38	2.24	1.19	1.75	1.11	0.808	1.16	1.54	1.35
Y fixed	1.31	1.57	1.32	1.01	1.03	0.721	1.08	1.23	1.47
pThr fixed	0.403	0.521	0.836	1.01	0.51	2.02	1.57	1.28	1.03
pTyr fixed	1.48	12.4	1.22	0.697	0.613	2.31	2.58	1.76	1.35

ACVR1B, construct: aa150-end (from UniProt P36896)
relative phosphorylation
Conditions	at +1	at +2	at +3	at +4	at -1	at -2	at -3	at -4	at -5
A fixed	0.754	1.35	0.905	1.06	0.833	0.721	0.953	0.891	1.03
D fixed	1.17	1.11	1.11	1.24	1.05	1.58	1.35	1.55	1.12
E fixed	1.75	0.847	1.54	1.19	1.32	6.31	1.52	1.26	0.838
F fixed	1.09	1.01	1.19	0.997	0.896	0.497	1.03	1.02	1.13
G fixed	0.796	0.995	1.22	0.798	0.65	0.801	1.12	1.03	0.975
H fixed	0.749	0.809	0.948	0.968	1.16	0.606	1.02	0.997	1.24
I fixed	1.21	1.13	1.06	0.855	1	0.622	0.855	0.874	0.837
K fixed	0.542	0.649	0.605	0.896	0.747	0.483	0.798	0.987	1.11
L fixed	1.05	1.22	1.01	0.818	1.33	0.597	0.85	0.936	0.931
M fixed	1.33	0.865	1.04	0.967	1.45	0.497	0.998	1.06	0.968
N fixed	0.774	0.902	0.741	0.975	0.963	0.716	0.96	0.954	1.01
P fixed	0.691	1.17	1.14	1.42	0.762	0.549	0.947	0.94	0.939
Q fixed	0.944	0.952	0.909	1.01	1.03	0.72	0.956	0.768	0.809
R fixed	0.604	0.764	0.662	0.799	0.88	0.624	0.884	0.889	1.11
V fixed	1.19	1.18	1.09	0.929	1.12	0.603	0.867	0.843	0.816
W fixed	1.14	0.919	0.903	1.07	0.822	0.592	0.892	1.01	1.19
Y fixed	1.23	1.13	0.95	1.01	0.991	0.49	0.995	0.998	0.953
pThr fixed	2.93	1.06	0.942	1.36	0.888	1.36	1.34	0.896	1.1
pTyr fixed	3.57	1.77	1.28	1.51	1.27	0.679	1.02	1.26	1.03
